# PMC12238530, “Dynamic SAS-6 phosphorylation aids centrosome duplication and elimination in C. elegans oogenesis” (EMBO Reports, 2025)
# T1: GST-SAS-6 full-length (FL) (C. elegans, UniProt O62479 1-492)
# T1 construct: SAS-6, C. elegans, full length (1-492); pGEX6P1-GST vector; also called full-length SAS-6 coupled to beads; source: E. coli BL21 (DE3), purified (Glutathione Sepharose 4B); not shown: GST, N-terminal, kept
# T1 sequence (looked up): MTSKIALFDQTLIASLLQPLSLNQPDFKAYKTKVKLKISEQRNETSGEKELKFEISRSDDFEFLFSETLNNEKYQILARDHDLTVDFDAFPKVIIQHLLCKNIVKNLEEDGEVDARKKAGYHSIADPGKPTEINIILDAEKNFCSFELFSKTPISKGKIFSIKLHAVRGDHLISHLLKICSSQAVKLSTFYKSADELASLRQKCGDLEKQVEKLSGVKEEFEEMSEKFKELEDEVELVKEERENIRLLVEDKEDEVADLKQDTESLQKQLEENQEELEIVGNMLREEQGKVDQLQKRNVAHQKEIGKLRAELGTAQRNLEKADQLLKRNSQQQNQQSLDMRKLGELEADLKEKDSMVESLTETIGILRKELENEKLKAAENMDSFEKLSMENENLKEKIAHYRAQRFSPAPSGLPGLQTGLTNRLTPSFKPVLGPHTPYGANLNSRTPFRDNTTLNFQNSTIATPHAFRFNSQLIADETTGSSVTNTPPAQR
# T2: GST-SAS-6(∆N) (C. elegans, UniProt O62479 171-492)
# T2 construct: SAS-6, C. elegans, N-terminal head domain deleted (∆1–170), so residues 171-492; also called GST-SAS-6-ΔN; source: E. coli BL21 (DE3), purified (Glutathione Sepharose 4B); not shown: GST, N-terminal, kept
# T2 sequence (looked up): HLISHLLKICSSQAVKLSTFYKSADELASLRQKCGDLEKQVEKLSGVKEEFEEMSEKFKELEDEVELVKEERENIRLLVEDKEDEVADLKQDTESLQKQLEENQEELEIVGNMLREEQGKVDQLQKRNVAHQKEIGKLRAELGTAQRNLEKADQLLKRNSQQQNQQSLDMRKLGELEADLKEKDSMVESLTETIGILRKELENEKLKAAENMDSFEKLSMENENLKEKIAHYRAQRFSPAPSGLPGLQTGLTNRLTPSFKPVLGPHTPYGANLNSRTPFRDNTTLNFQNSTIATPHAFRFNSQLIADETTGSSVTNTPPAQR
# B1: SAS-6-C-mCherry-His (domain or fragment, C. elegans, UniProt O62479 401-492, looked up)
# chain: HYRAQRFSPAPSGLPGLQTGLTNRLTPSFKPVLGPHTPYGANLNSRTPFRDNTTLNFQNSTIATPHAFRFNSQLIADETTGSSVTNTPPAQR
# notes: SAS-6, C. elegans, C-terminal unstructured region, residues 401-492; Cloned in pET.28a-mCherry; the primer's vector part encodes LFQGP before the NdeI site, so a further N-terminal tag may be there; also called mCherry-His tagged SAS-6 C-terminus; SAS-6 C-terminus; source: E. coli BL21 (DE3), purified (Ni-NTA); not shown: mCherry, C-terminal, kept; His, C-terminal, kept
# Assays:
# [1] = target: T1, GST-SAS-6 full-length (FL); assay: pull-down; GST pulldown of purified His-tagged SAS-6 proteins by purified GST-SAS-6 FL or truncations, with or without pre-phosphorylation by CDK1; α-His immunoblot and CBB staining (Fig. 5A, 5C, 5D); conditions: both partners purified
# GST-SAS-6(∆N) = target: T2, GST-SAS-6(∆N); assay: bead recruitment assay; GST-SAS-6 FL or truncations coupled to agarose beads; recruitment of mCherry-His tagged SAS-6 C-terminus seen by fluorescence (Fig. 5B, 5E); conditions: both partners purified
binder,measurement,setting,value
B1,binding result,[1],binds
same,binding result,GST-SAS-6(∆N),binds
